Several values for one entry are separate records, joined by “and”; a condition that tells them apart may be missing. Identical values can stand only once. Entries after “also recorded” stand apart in the source; their conditions may differ. Ends that are not written are not given here.
Key:
[1] = Peptide retention in mouse blood circulation; format: in vivo; settings: C57BL/6 mice, intravenous, serum ELISA, 3 mice, Figure 3C; for Circulation half-life (t1/2): 2.1 nmoles TNYL-RAW-Fc, 1.5 nmoles TNYL-RAW-streptavidin, 6 nmoles PEG-TNYL-RAW, non linear regression; for AUC: % of the injected dose•hours/ml
Description: 2.1 nmoles TNYL-RAW-Fc, 1.5 nmoles TNYL-RAW-streptavidin and 6 nmoles PEG-TNYL-RAW, diluted in 150 µl sterile PBS, were administered to C57BL/6 mice by intravenous or intraperitoneal injection. Blood was collected from each mouse from the orbital sinus at two time points after injection and by cardiac puncture under Avertin anesthesia at a third time point. These experiments were carried out in accordance with the recommendations in the Guide for the Care and Use of Laboratory Animals of the National Institutes of Health. The protocol was approved by the Institutional Animal Care and Use Committee of the Sanford-Burnham Medical Research Institute (Animal Assurance Number: A-3053-1). After collection, the blood was […], and the serum was stored at −20°C. The different forms of TNYL-RAW in the serum were detected by using the same ELISA assays described above for measurements of binding affinity. The absorbance from wells incubated with mouse serum without TNYL-RAW was subtracted as the background and the concentration of TNYL-RAW in the blood was calculated based on a standard curve generated using serum containing known TNYL-RAW concentrations. The half-life of each peptide was estimated by using non linear regression and the program Prism (GraphPad Software Inc.). The area under the curve (AUC) was expressed as % ID•hours/ml (where ID is the initial dose of peptide injected) and calculated by dividing the AUC value obtained using the program Prism by the amount of injected peptide and multiplying by 100.

[2] = Peptide stability in mouse serum ex vivo; format: in vitro ADME; settings: undiluted mouse serum, 37°C, functional peptide by ELISA; Figures 1E, 3B
EphB4 = molecular target: T1, EphB4 (Homo sapiens, UniProt P54760); assay: EphB4 activation by multimeric peptide forms (unpublished data); format: cell-based
T1 sequence (P54760 16-987): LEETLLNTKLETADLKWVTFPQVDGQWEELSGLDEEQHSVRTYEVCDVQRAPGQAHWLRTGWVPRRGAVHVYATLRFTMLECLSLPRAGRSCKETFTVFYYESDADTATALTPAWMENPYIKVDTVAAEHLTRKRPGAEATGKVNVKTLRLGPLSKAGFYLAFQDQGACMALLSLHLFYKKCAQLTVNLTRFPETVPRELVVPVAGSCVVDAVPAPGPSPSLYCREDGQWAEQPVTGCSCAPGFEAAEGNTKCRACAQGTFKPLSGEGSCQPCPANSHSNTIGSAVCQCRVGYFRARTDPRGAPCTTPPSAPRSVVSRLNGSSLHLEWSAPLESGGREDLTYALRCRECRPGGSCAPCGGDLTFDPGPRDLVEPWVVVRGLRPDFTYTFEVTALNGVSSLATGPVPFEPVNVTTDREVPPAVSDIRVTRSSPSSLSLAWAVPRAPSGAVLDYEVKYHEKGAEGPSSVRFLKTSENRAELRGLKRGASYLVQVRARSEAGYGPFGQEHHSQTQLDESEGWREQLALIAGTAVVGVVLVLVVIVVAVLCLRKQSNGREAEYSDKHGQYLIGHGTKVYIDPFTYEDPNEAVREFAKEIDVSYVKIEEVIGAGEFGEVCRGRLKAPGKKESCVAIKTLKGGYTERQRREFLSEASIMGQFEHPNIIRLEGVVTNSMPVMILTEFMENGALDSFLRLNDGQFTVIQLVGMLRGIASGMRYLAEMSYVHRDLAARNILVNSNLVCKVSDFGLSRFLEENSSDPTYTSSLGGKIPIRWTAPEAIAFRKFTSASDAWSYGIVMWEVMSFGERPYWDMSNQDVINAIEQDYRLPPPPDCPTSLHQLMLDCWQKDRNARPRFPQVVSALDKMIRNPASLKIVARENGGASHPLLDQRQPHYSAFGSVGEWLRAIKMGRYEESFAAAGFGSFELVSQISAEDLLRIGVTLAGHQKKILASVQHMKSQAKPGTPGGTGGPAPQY

[3] = Peptide stability in cell culture medium / conditioned medium (ELISA of functional peptide); format: in vitro ADME; settings: up to 48 hours; 25 nM peptide; medium diluted 1:10; functional peptide by ELISA; 6–9 measurements; Figure 3A
Description: PC3 prostate cancer cells were grown in RPMI 1640 medium (Mediatech, Inc, Herndon, VA) with 10% fetal bovine serum (FBS) (Hyclone, Logan, UT), penicillin and streptomycin. B16-F10-luc-G5 melanoma cells (Caliper Life Sciences, Hopkinton, MA) were grown in Eagle's MEM with Earle's Balanced Salts (EBSS) (Hyclone, Logan, UT) supplemented with 10% FBS, non essential amino acids (Hyclone, Logan, UT), L-glutamine, sodium pyruvate (Hyclone, Logan, UT), MEM vitamin solution (Life Technologies-Invitrogen), penicillin and streptomycin (Omega Scientific, Tarzana, CA). HUVECs (Cascade Biologics, Portland, OG) were grown in Medium 200 supplemented with low serum growth supplements (Cascade Biologics), 10% FBS, penicillin and streptomycin, and fungizone (Omega Scientific, Tarzana, CA). Rat EMCs were grown in DMEM (Mediatech, Inc, Herndon, VA) supplemented with 10% FBS, penicillin and streptomycin. The different modified forms of TNYL-RAW at a concentration of 25 nM were added to fresh medium or culture medium conditioned by the cells for 1–4 days. The culture medium was collected after different time periods and diluted 1∶10 in ELISA wells. The amount of intact TNYL-RAW peptide remaining was measured by using the ELISA assays described above for measurement of binding affinity. In some experiments, the peptide was incubated at 37°C with PC3 cell conditioned medium collected from the cells in the absence or in the presence of protease inhibitors (10 µg/ml aprotinin, 5 µg/ml pepstatin, 10 µg/ml leupeptin and 0.75 mM or phenylmethylsulfonylfluoride (PMSF)).

Substance	Circulation half-life (t1/2) [1]	AUC [1] [% ID-h/ml]	Stability in mouse serum ex vivo [2]	Activation of EphB4 (EphB4)	Degradation in PC3 cell conditioned medium [3]
TNYL-RAW-Fc: TNYL-RAW fused through a GSGSK linker to the Fc portion of human IgG1, from HEK 293 cells (TNYLFSPNGPIARAWGSGSK-{Fc (human IgG1)}; also: dimer)	~1 h and 0.8 h	140	much decreased degradation; also recorded: not as stable in mouse serum as the streptavidin-bound or PEGylated peptide	unable to detectably activate EphB4	absence of peptide degradation
TNYL-RAW-streptavidin: biotinylated TNYL-RAW in complex with streptavidin at molar ratio 4:1	~1 h and 1.3 h	110	much decreased degradation	unable to detectably activate EphB4	absence of peptide degradation
